The experiment has as its target SARS-CoV-2 receptor-binding domain (RBD), prototype (Wuhan-Hu-1), Avi-tagged and biotinylated (SARS-CoV-2). The experiment is described as follows: BLI. On the technique in general: BLI is a label-free optical method that tracks binding on a fibre tip over time.

The results in this text go back to PMC9907810 (2023).

B1: Ab08 single-chain fragment variable (scFv) (scFv, V domains shown)
VH: QVQLVQSGAEVKKPGSSVKVSCKASGGTFSSYTISWVRQAPGQGLEWMGGIIPILGTTNYAQKFQGRVTITADESTSTAYMELSSLRSEDTAVYYCARKFGYSGYGATWYFDLWGRGTLVTVSS
VL: QSVLTQPPSVSGAPGQRVTISCTGNSSNIGAGYDVHWYQQFPGTAPKLLIYGNSNRPSGVPDRFSGSKSGTSASLAITGLQAEDEADYYCQSYDSSLSGSVFGGGTKLTVL
By koff is commonly meant a measure of how fast the partners let go of each other. The low end stands for slow dissociation, the high end for fast dissociation. B1 displayed a koff of 7.5e-05 s⁻¹.
